Results published in the RNAGym collection of RNA variant scans (doi:10.7554/elife.80360).

B1: HDV Ribozyme (parent)
chain: GGCCGGCAUGGUCCCAGCCUCCUCGCUGGCGCCGGCUGGGCAACAUUCCGAGGGGACCGUCCCCUCGGUAAUGGCGAAUGGGACCCA

Variants of: B1
Assay: self-cleavage, relative activity (ratio to wild type); higher = more cleavage; co-transcriptional

| Variant | self-cleavage |
| --- | --- |
| U65A U69C | 0.782 |
| U65A U69A | 0.929 |
| U65A U69G | 0.806 |
| C64A U65G | 0.937 |
| C64A U65A | 0.895 |
| U65C G67U | 0.627 |
| U65C G67A | 0.706 |
| U65C G67C | 0.984 |
| U65C C84A | 0.773 |
| U65C C84G | 0.646 |
| U65C C84U | 0.703 |
| U65A C75U | 0.277 |
| U65A C75G | 0.19 |
| U65A G82A | 0.281 |
| U65A G82C | 0.614 |
| C64A G80A | 0.611 |
| U65C A77G | 0.831 |
| U65C A77C | 0.465 |
| C64G G73A | 0.594 |
| C64U C85A | 1.25 |
| C64G A77G | 0.434 |
| C64G A77U | 0.506 |
| C64U U65G | 0.784 |
| C64U U65C | 0.914 |

| Variant | self-cleavage |
| --- | --- |
| C64U U65A | 0.984 |
| C64U A71C | 0.719 |
| C64A G81U | 0.379 |
| C64A G81C | 0.203 |
| U65A G80U | 0.279 |
| U65A G80C | 0.123 |
| U65A | 0.966 |
| U65C | 1.02 |
| U65C G76C | 1.09 |
| U65C G76A | 0.918 |
| U65C G76U | 1.14 |
| U65C C66A | 1.18 |
| U65C C66G | 1.11 |
| C64U G82U | 0.486 |
| C64U G82A | 0.487 |
| C64U G82C | 0.208 |
| C64A G82A | 0.282 |
| C64A G82U | 0.409 |
| U65A G67C | 0.705 |
| U65A G67U | 0.767 |
| U65C A83U | 0.369 |
| U65C A83G | 0.862 |
| U65A A87C | 1.04 |
| U65A A87G | 0.877 |

| Variant | self-cleavage |
| --- | --- |
| C64G | 0.954 |
| C64U | 0.995 |
| C64A C85U | 0.72 |
| C64U C86U | 0.772 |
| C64U C86G | 0.972 |
| C64A A87C | 0.779 |
| C64U A87G | 1.04 |
| U65A A78U | 0.396 |
| U65C A70U | 0.789 |
| U65C A70G | 0.705 |
| U65C A70C | 1.17 |
| C64G U69A | 1.01 |
| C64U A83U | 0.361 |
| C64U A83C | 0.332 |
| U65A G76A | 0.976 |
| U65A G73C | 0.415 |
| U65A G73A | 0.342 |
| C64A C84G | 0.536 |
| C64A C84A | 1.15 |
| C64U G76U | 1.15 |
| C64U G76A | 1.01 |
| C64U G76C | 0.905 |
| C64G U79C | 0.623 |
| U65C G68A | 0.959 |

| Variant | self-cleavage |
| --- | --- |
| C64U U69G | 1.07 |
| C64U U69C | 1.17 |
| C64G A78U | 0.18 |
| C64U C66G | 0.748 |
| C64G G81A | 0.222 |
| C64G G81U | 0.312 |
| C64U G73U | 0.345 |
| C64U G73C | 0.601 |
| U65A U72A | 0.636 |
| U65A U72G | 0.399 |
| C64U G81U | 0.313 |
| C64U G81C | 0.315 |
| C64U G81A | 0.318 |
| U65A C66U | 0.812 |
| U65A C66G | 0.932 |
| C64U A70C | 0.956 |
| C64U A70G | 0.701 |
| C64G G80U | 0.443 |
| C64G G80A | 0.641 |
| C64G G80C | 0.305 |
| C64G A83G | 0.708 |
| C64G A83U | 0.508 |
| C64G U72C | 0.364 |
| C64U G68C | 0.305 |

| Variant | self-cleavage |
| --- | --- |
| C64U G68A | 0.821 |
| C64U A78G | 0.813 |
| C64U A78C | 0.138 |
| C64U G74A | 0.535 |
| U65A G74A | 0.489 |
| U65A G74C | 0.225 |
| C64G G68A | 0.338 |
| C64G G68U | 0.136 |
| C64G C75A | 0.201 |
| U65A A83G | 0.859 |
| U65A A83C | 0.504 |
| U65A A77G | 0.643 |
| U65A A77C | 0.277 |
| C64U C75A | 0.242 |
| C64U C75U | 0.252 |
| C64A U69C | 0.782 |
| C64G G82A | 0.535 |
| U65A C84G | 0.494 |
| U65A C84A | 0.769 |
| U65C G74U | 0.523 |
| C64A U72G | 0.856 |
| C64A U72C | 0.465 |
| C64A U72A | 0.491 |
| C64U G67A | 0.92 |

| Variant | self-cleavage |
| --- | --- |
| C64U G67U | 0.804 |
| U65A A70G | 1.05 |
| U65A G81A | 0.495 |
| U65A A71C | 0.767 |
| U65A A71G | 0.831 |
| U65A A71U | 0.76 |
| U65A G68C | 0 |
| U65C A78U | 0.312 |
| U65C A71U | 0.812 |
| C64G A70C | 0.536 |
| C64G A70G | 0.712 |
| C64U U72C | 0.612 |
| C64U U72G | 0.712 |
| C64U C84A | 0.801 |
| C64U C84G | 0.869 |
| C64U C84U | 0.785 |
| C64G C86G | 0.859 |
| C64G C86U | 0.845 |
| U65C C86A | 0.673 |
| C64A G74U | 0.327 |
| C64A G74C | 0.242 |
| C64A G74A | 0.295 |
| C64A G68U | 0.272 |
| C64A G68C | 0.554 |

| Variant | self-cleavage |
| --- | --- |
| C64G U65C | 0.199 |
| C64G U65G | 0.943 |
| U65C A87G | 0.94 |
| U65C A87U | 1.08 |
| U65A C86U | 0.937 |
| U65A C86A | 1.07 |
| C64G C85G | 0.872 |
| U65C C75A | 0.0489 |
| U65C C75G | 0.482 |
| U65C C75U | 0.185 |
| C64G A71G | 1.11 |
| U65C G73C | 0.283 |
| C64A G73C | 0.256 |
| C64G G67C | 0.332 |
| C64G G67U | 0.365 |
| C64A G67A | 0.369 |
| C64A G67C | 0.277 |
| C64G G74U | 0.635 |
| C64G G74C | 0.244 |
| U65A C85G | 0.604 |
| U65C C85A | 0.991 |
| U65A U79A | 0.727 |
| C64A U79C | 0.636 |
